One substance from publication PMC8451464 can be followed below.

The target of this experiment is papain (UniProt P00784).
Chain of UniProt P00784 (P00784 134-345): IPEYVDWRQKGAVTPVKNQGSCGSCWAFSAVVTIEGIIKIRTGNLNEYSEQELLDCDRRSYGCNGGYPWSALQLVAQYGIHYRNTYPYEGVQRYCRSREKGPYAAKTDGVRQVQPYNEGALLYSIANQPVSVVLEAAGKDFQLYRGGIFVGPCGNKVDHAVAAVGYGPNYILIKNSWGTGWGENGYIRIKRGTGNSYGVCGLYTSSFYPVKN

His-SSPbP53 (natural protein) showed a degradation of fluorescein-labeled casein by papain (100 μg/mL) with His-SSPbP53 at 100 and 500 nM, 1 h at room temperature (% reduction of activity) above 50.
